The values below come from US20200399344A1.

The target of test [1] is hCD2 expressed on CHO-K1/hCD2 cells (human) (UniProt P06729). As to the kind of experiment: flow cytometry, isotype control stain of Cho-K1-Luc hCD2 clone 4; unstained cells 362. A general note: In flow cytometry, cells or beads pass a laser one at a time.
The target of test [2] is m2B4 expressed on CHO-K1/m2B4 cells (mouse) (UniProt Q07763). As to the kind of experiment: flow cytometry, isotype control stain of Cho-K1-NFkB-Luc-m2B4 clone C2; unstained cells 2.00.
The target in test [3] is mCD28 expressed on CHO-K1/mCD28 cells (mouse) (UniProt P31041). As to the kind of experiment: flow cytometry, isotype control stain (sample Chok1-IsotypeCD28); unstained cells 286.
Test [4] addresses hCD28 expressed on CHO-K1/hCD28 cells (human) (UniProt P10747). Description: flow cytometry, isotype control stain of CHO-K1/hCD28 cells (table row 1); unstained cells 130.

Sequence of mCD28 expressed on CHO-K1/mCD28 cells (mouse) (P31041 20-218): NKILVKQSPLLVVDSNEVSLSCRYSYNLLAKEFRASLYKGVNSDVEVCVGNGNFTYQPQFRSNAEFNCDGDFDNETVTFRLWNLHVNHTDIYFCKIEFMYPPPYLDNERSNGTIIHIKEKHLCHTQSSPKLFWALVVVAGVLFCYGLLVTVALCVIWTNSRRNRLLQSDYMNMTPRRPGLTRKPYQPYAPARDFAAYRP
Sequence of m2B4 expressed on CHO-K1/m2B4 cells (mouse) (Q07763 20-397): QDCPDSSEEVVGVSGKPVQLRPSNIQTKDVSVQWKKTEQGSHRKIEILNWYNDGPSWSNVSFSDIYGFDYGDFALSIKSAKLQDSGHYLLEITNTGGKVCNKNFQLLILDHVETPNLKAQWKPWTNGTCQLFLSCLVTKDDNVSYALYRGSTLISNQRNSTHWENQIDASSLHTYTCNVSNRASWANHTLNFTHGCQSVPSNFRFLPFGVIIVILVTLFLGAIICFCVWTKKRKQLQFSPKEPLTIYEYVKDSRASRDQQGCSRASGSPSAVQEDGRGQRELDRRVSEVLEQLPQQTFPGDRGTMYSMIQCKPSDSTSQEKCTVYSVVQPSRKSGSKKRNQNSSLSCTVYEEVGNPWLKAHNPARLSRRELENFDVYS
Sequence of hCD28 expressed on CHO-K1/hCD28 cells (human) (P10747 19-220): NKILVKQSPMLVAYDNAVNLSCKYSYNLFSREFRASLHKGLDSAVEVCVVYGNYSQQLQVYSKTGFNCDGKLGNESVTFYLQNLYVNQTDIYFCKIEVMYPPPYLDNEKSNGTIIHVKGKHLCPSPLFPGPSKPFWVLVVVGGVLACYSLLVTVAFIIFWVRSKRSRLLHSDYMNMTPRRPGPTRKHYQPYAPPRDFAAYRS
Sequence of hCD2 expressed on CHO-K1/hCD2 cells (human) (P06729 25-351): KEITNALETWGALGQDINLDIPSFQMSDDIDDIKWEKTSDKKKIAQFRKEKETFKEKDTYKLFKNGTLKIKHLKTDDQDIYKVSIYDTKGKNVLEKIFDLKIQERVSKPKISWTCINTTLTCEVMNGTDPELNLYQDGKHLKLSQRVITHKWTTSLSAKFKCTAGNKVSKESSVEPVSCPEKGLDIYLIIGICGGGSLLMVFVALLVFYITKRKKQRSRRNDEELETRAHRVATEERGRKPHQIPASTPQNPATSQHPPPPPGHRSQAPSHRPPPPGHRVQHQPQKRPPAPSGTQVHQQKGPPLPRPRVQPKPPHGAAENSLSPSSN

For isotype control antibody, the Geometric Mean : PE-A was 1760 in test [1], 178 in test [2], 678 in test [3] and 589 in test [4].
